Laboratory results from patent US20120276009A1 (KATHOLIEKE UNIVERSITEIT LEUVEN, published 2012).
One block for each binder: values may come before it.

Columns and labels:
[1] = biological target: T1, T1.6: Tau5-20 (non-phosphorylated peptide) (human); assay: ELISA, peptide coated at 10 µg/mL
T1 construct: Non-phosphorylated counterpart of T1.5; also called Tau peptide
T1 peptide: RQEFEVMEDHAGTYGL

[2] = biological target: T2, full-length (441 aa) human Tau protein (human, UniProt P10636 1-758); assay: ELISA, protein coated at 1 µg/mL
T2 construct: Non-phosphorylated recombinant protein bought from SignalChem; also called Full-length Tau; Tau40
T2 sequence (P10636 other isoform, or with tags, fused parts or gaps limits assumed): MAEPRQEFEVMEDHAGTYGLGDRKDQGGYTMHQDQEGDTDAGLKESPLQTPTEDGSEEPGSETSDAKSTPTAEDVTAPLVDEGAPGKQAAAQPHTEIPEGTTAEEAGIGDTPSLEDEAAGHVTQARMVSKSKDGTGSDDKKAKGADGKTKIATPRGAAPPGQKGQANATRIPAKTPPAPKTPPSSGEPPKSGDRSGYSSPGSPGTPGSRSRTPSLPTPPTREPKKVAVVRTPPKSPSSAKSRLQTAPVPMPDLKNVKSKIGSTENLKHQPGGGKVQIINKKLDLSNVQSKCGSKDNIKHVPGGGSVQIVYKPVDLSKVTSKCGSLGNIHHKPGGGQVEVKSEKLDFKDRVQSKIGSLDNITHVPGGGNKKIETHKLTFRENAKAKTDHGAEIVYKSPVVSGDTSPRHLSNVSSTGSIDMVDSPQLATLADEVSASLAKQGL

binding result [1]: no binding (tested: 20 µg/mL)
B1: ACI-33-6C10-Ab2 (antibody, IgG3, V domains shown)
VH: EVQLVESGGGLVKPGGSLKLSCAPSGFTFSDYGMHWVRQAPEKGLEWVAYISSGSSTIYYGDTVKGRFTISRDNAKNTLFLQMTSLRSEDTAMYYCARRGQLRLRLFAYWGQGTLVTVSA
VL: DIVMTQSHKFMSTSVGDRVSITCKASQDVSTAVAWYQQKPGQSPKLLIYSASYRYTGVPDRFTGSGSGTDFTFTISSVQAEDLAVYYCQQHYTTPLTFGAGTKLELK
notes: Mouse monoclonal from hybridoma 6C10E5E9C12 (DSM ACC3081); also called 6C10E5E9C12

binding result [2]: no binding (tested: 20 µg/mL)
B2: ACI-35-2G5-Ab1 (antibody, IgG2b, V domains shown)
VH: QVQLKQSGAELVRPGASVKLSCKASGYTFTDYYINWVKQRPGQGLEWIARIYPGRGNIYYNEKFKGKATLTAEKSSSTAYMQLSSLTSEDSAVYFCARFWDVTYWGQGTLVTVSA
VL: DVLMTQTPLSLPVSLGDQASISCRSSQSIVHSNGNTYLEWFLQKPGQSPKLLIYKVSNRFSGVPDRFSGSGSGTDFTLKISRVEAEDLGVYYCFQGSHVPYTFGGGTKLEIK
notes: Mouse monoclonal from hybridoma A6-2G5-08; also called A6-2G5-08
